Measured values reported in patent publication US20260098059A1 (ENDOMET BIOSCIENCES, published 2026).
Several values for one entry are separate records, joined by “and”; a condition that tells them apart may be missing. Identical values can stand only once. Bridges are numbered along the chain shown (N, C = ends). Where no end group is shown, it is not given here. [ ]: non-standard residue; d: D form. The star is where a group is joined. Palmitoyl = CCCCCCCCCCCCCCCC(=O)*; Chg = N[C@H](C(=O)O)C1CCCCC1; NMeA = CN[C@@H](C)C(=O)O

T1: β-catenin (UniProt P35222 134-665, limits assumed, biotinylated in the SPR and plate assays)
T1 sequence (looked up): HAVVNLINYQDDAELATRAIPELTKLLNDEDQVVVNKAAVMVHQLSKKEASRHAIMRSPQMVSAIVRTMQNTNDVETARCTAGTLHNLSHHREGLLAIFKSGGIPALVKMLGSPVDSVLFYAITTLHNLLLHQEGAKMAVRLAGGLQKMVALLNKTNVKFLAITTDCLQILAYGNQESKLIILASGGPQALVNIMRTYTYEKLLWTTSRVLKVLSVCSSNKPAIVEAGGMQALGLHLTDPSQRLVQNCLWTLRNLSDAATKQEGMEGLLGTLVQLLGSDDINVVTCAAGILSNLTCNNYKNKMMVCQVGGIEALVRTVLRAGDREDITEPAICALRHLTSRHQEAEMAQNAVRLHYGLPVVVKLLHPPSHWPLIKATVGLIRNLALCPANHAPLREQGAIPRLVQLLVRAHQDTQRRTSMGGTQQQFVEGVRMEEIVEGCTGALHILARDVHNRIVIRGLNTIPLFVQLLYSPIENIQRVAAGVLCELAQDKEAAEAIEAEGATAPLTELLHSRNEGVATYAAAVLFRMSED

B1: SEQ ID NO: 489 (peptide)
peptide: PQKILDEH[Chg]QRVMK-NH2
modifications: lactam 3-7; not fully specified (N-terminus); printed as H23C11C(O)-PQK*ILDE*H-Chg-QRVMK-NH2
B2: SEQ ID NO: 470 (peptide)
peptide: Ac-W[NMeA]QSILDEH[Chg]QKVWG-NH2
modifications: lactam 8-12; not fully specified; printed as Ac-NH-W-NMeA-QSILDE*H-Chg-QK*VWG-NH2
B3: SEQ ID NO: 437 (peptide)
peptide: WAQSILDEHVQKVWG
HELM: PEPTIDE1{[ac].W.[meA].Q.S.I.L.D.E.H.V.Q.K.V.W.G.[am]}$PEPTIDE1,PEPTIDE1,9:R3-13:R3$$$V2.0
SMILES: CC[C@H](C)[C@H](NC(=O)[C@H](CO)NC(=O)[C@H](CCC(N)=O)NC(=O)[C@H](C)N(C)C(=O)[C@H](Cc1c[nH]c2ccccc12)NC(C)=O)C(=O)N[C@@H](CC(C)C)C(=O)N[C@@H](CC(=O)O)C(=O)N[C@H]1CCC(=O)NCCCC[C@@H](C(=O)N[C@H](C(=O)N[C@@H](Cc2c[nH]c3ccccc23)C(=O)NCC(N)=O)C(C)C)NC(=O)[C@H](CCC(N)=O)NC(=O)[C@H](C(C)C)NC(=O)[C@H](Cc2c[nH]cn2)NC1=O
B4: SEQ ID NO: 240 (peptide)
peptide: MWILISFW
HELM: PEPTIDE1{[ac].M.W.I.L.I.S.F.W.[O=C(O)CCCN[*:1]]}$$$$V2.0
SMILES: CC[C@H](C)[C@H](NC(=O)[C@H](CC(C)C)NC(=O)[C@@H](NC(=O)[C@H](Cc1c[nH]c2ccccc12)NC(=O)[C@H](CCSC)NC(C)=O)[C@@H](C)CC)C(=O)N[C@@H](CO)C(=O)N[C@@H](Cc1ccccc1)C(=O)N[C@@H](Cc1c[nH]c2ccccc12)C(=O)NCCCC(=O)O
B5: SEQ ID NO: 243 (peptide)
peptide: KWFLIXAWD
HELM: PEPTIDE1{[ac].K.W.F.L.I.[Abu].A.W.D}$PEPTIDE1,PEPTIDE1,2:R3-10:R3$$$V2.0
SMILES: CC[C@@H]1NC(=O)[C@H]([C@@H](C)CC)NC(=O)[C@H](CC(C)C)NC(=O)[C@H](Cc2ccccc2)NC(=O)[C@H](Cc2c[nH]c3ccccc23)NC(=O)[C@@H](NC(C)=O)CCCCNC(=O)C[C@@H](C(=O)O)NC(=O)[C@H](Cc2c[nH]c3ccccc23)NC(=O)[C@H](C)NC1=O
B6: SEQ ID NO: 460 (peptide)
peptide: Ac-W[NMeA]QSILDKH[Chg]QDVW-NH2
modifications: lactam 8-12; not fully specified; printed as Ac-NH-W-NMeA-QSILDK*H-Chg-QD*VW-NH2
B7: SEQ ID NO: 415 (peptide)
peptide: WAQKILDEHGSRVWG
HELM: PEPTIDE1{W.[meA].Q.K.I.L.D.E.H.[O=C([C@@H](N[*:1])C1CCCCC1)[*:2]].S.R.V.W.G.[am]}$PEPTIDE1,PEPTIDE1,4:R3-8:R3$$$V2.0
SMILES: CC[C@H](C)[C@@H]1NC(=O)[C@@H](NC(=O)[C@H](CCC(N)=O)NC(=O)[C@H](C)N(C)C(=O)[C@@H](N)Cc2c[nH]c3ccccc23)CCCCNC(=O)CC[C@@H](C(=O)N[C@@H](Cc2c[nH]cn2)C(=O)N[C@H](C(=O)N[C@@H](CO)C(=O)N[C@@H](CCCNC(=N)N)C(=O)N[C@H](C(=O)N[C@@H](Cc2c[nH]c3ccccc23)C(=O)NCC(N)=O)C(C)C)C2CCCCC2)NC(=O)[C@H](CC(=O)O)NC(=O)[C@H](CC(C)C)NC1=O
B8: SEQ ID NO: 416 (peptide)
peptide: WAQKILDEHGSRVWG
HELM: PEPTIDE1{[ac].W.[meA].Q.K.I.L.D.E.H.[O=C([C@@H](N[*:1])C1CCCCC1)[*:2]].S.R.V.W.G.[am]}$PEPTIDE1,PEPTIDE1,5:R3-9:R3$$$V2.0
SMILES: CC[C@H](C)[C@@H]1NC(=O)[C@@H](NC(=O)[C@H](CCC(N)=O)NC(=O)[C@H](C)N(C)C(=O)[C@H](Cc2c[nH]c3ccccc23)NC(C)=O)CCCCNC(=O)CC[C@@H](C(=O)N[C@@H](Cc2c[nH]cn2)C(=O)N[C@H](C(=O)N[C@@H](CO)C(=O)N[C@@H](CCCNC(=N)N)C(=O)N[C@H](C(=O)N[C@@H](Cc2c[nH]c3ccccc23)C(=O)NCC(N)=O)C(C)C)C2CCCCC2)NC(=O)[C@H](CC(=O)O)NC(=O)[C@H](CC(C)C)NC1=O
B9: SEQ ID NO: 420 (peptide)
peptide: WAQKGLDEHVQRVWG
HELM: PEPTIDE1{W.[meA].Q.K.[O=C([C@@H](N[*:1])C1CCCCC1)[*:2]].L.D.E.H.V.Q.R.V.W.G.[am]}$PEPTIDE1,PEPTIDE1,4:R3-8:R3$$$V2.0
SMILES: CC(C)C[C@@H]1NC(=O)[C@H](C2CCCCC2)NC(=O)[C@@H](NC(=O)[C@H](CCC(N)=O)NC(=O)[C@H](C)N(C)C(=O)[C@@H](N)Cc2c[nH]c3ccccc23)CCCCNC(=O)CC[C@@H](C(=O)N[C@@H](Cc2c[nH]cn2)C(=O)N[C@H](C(=O)N[C@@H](CCC(N)=O)C(=O)N[C@@H](CCCNC(=N)N)C(=O)N[C@H](C(=O)N[C@@H](Cc2c[nH]c3ccccc23)C(=O)NCC(N)=O)C(C)C)C(C)C)NC(=O)[C@H](CC(=O)O)NC1=O
B10: SEQ ID NO: 422 (peptide)
peptide: W[NMeA]QK[Chg]LDEHVQRVWG-NH2
modifications: lactam 4-8; not fully specified (N-terminus); printed as H17C8C(O)NH-W-NMeA-QK*-Chg-LDE*HVQRVWG-NH2
B11: SEQ ID NO: 421 (peptide)
peptide: WAQKGLDEHVQRVWG
HELM: PEPTIDE1{[ac].W.[meA].Q.K.[O=C([C@@H](N[*:1])C1CCCCC1)[*:2]].L.D.E.H.V.Q.R.V.W.G.[am]}$PEPTIDE1,PEPTIDE1,5:R3-9:R3$$$V2.0
SMILES: CC(=O)N[C@@H](Cc1c[nH]c2ccccc12)C(=O)N(C)[C@@H](C)C(=O)N[C@@H](CCC(N)=O)C(=O)N[C@H]1CCCCNC(=O)CC[C@@H](C(=O)N[C@@H](Cc2c[nH]cn2)C(=O)N[C@H](C(=O)N[C@@H](CCC(N)=O)C(=O)N[C@@H](CCCNC(=N)N)C(=O)N[C@H](C(=O)N[C@@H](Cc2c[nH]c3ccccc23)C(=O)NCC(N)=O)C(C)C)C(C)C)NC(=O)[C@H](CC(=O)O)NC(=O)[C@H](CC(C)C)NC(=O)[C@H](C2CCCCC2)NC1=O

target: T1, β-catenin; experiment: cell-based or functional assay

Row | Binder | Wnt Reporter EC50
1 | B1 | > 15000 nM and ≤ 22500 nM
2 | H-MSRMWILISFWG-OH [SEQ ID NO: 51] | > 7500 nM and ≤ 15000 nM
3 | H-MSRMWFLICFWG-OH [SEQ ID NO: 46] | ≤ 7500 nM
4 | H-MWFLISFWRG-OH [SEQ ID NO: 49] | ≤ 7500 nM
5 | H-MSRMWFLISFWTG-OH [SEQ ID NO: 44] | > 15000 nM and ≤ 22500 nM
6 | Palmitoyl-PQKILDEH[Chg]QRVMK-NH2 (bridge 3-7; also: K3* and E7* marked (linkage not given here)) [SEQ ID NO: 490] | ≤ 7500 nM
7 | Ac-PQKILDEH[Chg]QRVMK-NH2 (lactam 3-7) [SEQ ID NO: 488] | ≤ 7500 nM

target: T1, β-catenin; experiment: competitive FP
Description: Fluorescence polarization (FP) is another method used to analyze protein-ligand interactions. This methodology measures the change in fluorescence light emitted by a labelled compound free vs. conjugated to another compound in solution. Upon binding of the fluorescent molecule to a complex, polarization increases because of limited rotation of the fluorescent tracer. Competitive FP is often utilized in drug screens as it is formatted for high throughput screens in a plate format. This immunoassay is performed by introducing a non-conjugated drug to compete for binding to the labelled competitor-ligand complex, leading to a reduction in polarization. […] Exemplary methodology is described in Example 13. Data were analyzed and plotted in Microsoft Excel (Microsoft, Redmond, WA).
Varying concentrations of β-catenin inhibitor candidate (SEQ ID NO: 404) were then added in a series of serial dilutions from 10 nM to 30 uM of inhibitor in different wells of the plate. The fluorescence polarization was read by Infinite M1000 (Tecan, Baldwin Park CA) at excitation wavelength of 470 nm and measured at emission wavelength of 520 nm. […] The experiments were performed three times and data were analyzed and plotted in Microsoft Excel (Microsoft, Redmond, WA).

Row | Binder | Kd
8 | Ac-WILIAFWG-OH [SEQ ID NO: 263] | > 400 nM and ≤ 1000 nM
9 | H-MWFLISFWA-OH [SEQ ID NO: 7] | > 10000 nM and ≤ 30000 nM
10 | H-MWFLASFWG-OH [SEQ ID NO: 11] | > 400 nM and ≤ 1000 nM
11 | H-MWALISFWG-OH [SEQ ID NO: 13] | > 400 nM and ≤ 1000 nM
12 | KWFLICAWD (not fully specified; cyclo-H2N-K(GABA*)WFLICAWD*-COOH) [SEQ ID NO: 247] | ≤ 400 nM
13 | Ac-MWFLIAFWG-OH [SEQ ID NO: 274] | ≤ 400 nM
14 | KWFLICAWD (not fully specified; cyclo-H2N-K(Ahx*)WFLICAWD*-COOH) [SEQ ID NO: 249] | > 400 nM and ≤ 1000 nM
15 | B2 | ≤ 400 nM
16 | B3 | ≤ 400 nM
17 | B4 | ≤ 400 nM
18 | B5 | > 10000 nM and ≤ 30000 nM
19 | B6 | ≤ 400 nM
20 | WPQSILDKHGQDVW (not fully specified; Ac-NH-WPQSILDK*H-Chg-QD*VW-NH2) [SEQ ID NO: 462] | ≤ 400 nM
21 | B7 | ≤ 400 nM
22 | B8 | ≤ 400 nM
23 | B9 | > 400 nM and ≤ 1000 nM
24 | B10 | > 400 nM and ≤ 1000 nM
25 | B11 | ≤ 400 nM
